Reference: IntAct's records for PubMed 19525971

B1: Charged multivesicular body protein 3 (Homo sapiens), Q9Y3E7-1 (parent)
chain: MGLFGKTQEKPPKELVNEWSLKIRKEMRVVDRQIRDIQREEEKVKRSVKDAAKKGQKDVCIVLAKEMIRSRKAVSKLYASKAHMNSVLMGMKNQLAVLRVAGSLQKSTEVMKAMQSLVKIPEIQATMRELSKEMMKAGIIEEMLEDTFESMDDQEEMEEEAEMEIDRILFEITAGALGKAPSKVTDALPEPEPPGAMAASEDEEEEEEALEAMQSRLATLRS
partner: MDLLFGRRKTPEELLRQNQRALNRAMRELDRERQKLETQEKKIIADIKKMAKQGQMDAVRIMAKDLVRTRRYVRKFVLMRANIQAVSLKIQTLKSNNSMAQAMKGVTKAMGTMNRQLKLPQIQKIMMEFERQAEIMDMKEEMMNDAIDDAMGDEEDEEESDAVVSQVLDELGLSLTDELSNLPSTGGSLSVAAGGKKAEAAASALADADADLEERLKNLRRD

Variants of: B1
Conditions: with chm2a_human CHMP2A

Variant | effect of a mutation on the interaction
MGLFGKTQEKPPKELVNEWSLKIRKEMRVVDRQIRDIQREEEKVKRSVKDAAKKGQKDDCIDLAKEMIRSRKAVSKLYASKAHMNSVLMGMKNQLAVLRVAGSLQKSTEVMKAMQSLVKIPEIQATMRELSKEMMKAGIIEEMLEDTFESMDDQEEMEEEAEMEIDRILFEITAGALGKAPSKVTDALPEPEPPGAMAASEDEEEEEEALEAMQSRLATLRS [V59D;V62D] | disrupting interaction
MGLFGKTQEKPPKELVNEWSLKIRKEMRVVDRQIRDIQREEEKVKRSVKDAAKKGQKDDCIDLAKEMIRSRKAVSKLYASKAHMNSVLMGMKNQLAVLRVAGSLQKSTEVMKAMQSLVKIPEIQATMRELSKEMMKAGIIEEMLEDTFESMDDQEEMEEEAEMEIDRDDFEITAGALGKAPSKVTDALPEPEPPGAMAASEDEEEEEEALEAMQSRLATLRS [V59D;V62D;I168D;L169D] | disrupting interaction
